Columns and labels:
Format in all cases: biochemical
[1] = biological target: FES (Homo sapiens, UniProt P07332); assay: TR-FRET kinase assay, FES; details: Kinase Concentration 1 nM; 50 nM ULight-labeled substrate, 200 micromolar ATP, 2 hours
Protocol: (§1) TR-FRET kinase assays are performed under standardized conditions: various individual kinases are incubated with 50 nM of kinase substrate BRB1 labeled with the TR-FRET acceptor dye ULight (PerkinElmer) and 200 micromolar ATP in 10 μL of kinase assay buffer (50 mM HEPES pH7.5, 10 mM MgCl2, 3 mM MnCl2, 1 mM EGTA, 2 mM DTT and 0.01% Tween-20) for 2 hours at room temperature. Reactions are stopped with EDTA, and anti-phospho-tyrosine antibodies (clone PT66) labeled with the TR-FRET europium chelate donor dye are added to a final concentration of 2 nM in a final volume of 20 μL. The TR-FRET signal emitted at 665 nm is read one hour after the addition of antibodies using a TR-FRET plate reader such as the Envision® Multilabel Plate reader (PerkinElmer). The emitted signal at 665 nm is proportional to the extent of peptide phosphorylation, Control reactions indicative of background are performed excluding ATP from the reaction.
(§2) Assay conditions are identical to those used described for FIG. 1.

[2] = biological target: PDGFRa (Homo sapiens, UniProt P16234); assay: TR-FRET kinase assay, PDGFRa; details: Kinase Concentration 0.5 nM; 50 nM ULight-labeled substrate, 200 micromolar ATP, 2 hours
Sequence of PDGFRa (P16234 24-1089, species assumed): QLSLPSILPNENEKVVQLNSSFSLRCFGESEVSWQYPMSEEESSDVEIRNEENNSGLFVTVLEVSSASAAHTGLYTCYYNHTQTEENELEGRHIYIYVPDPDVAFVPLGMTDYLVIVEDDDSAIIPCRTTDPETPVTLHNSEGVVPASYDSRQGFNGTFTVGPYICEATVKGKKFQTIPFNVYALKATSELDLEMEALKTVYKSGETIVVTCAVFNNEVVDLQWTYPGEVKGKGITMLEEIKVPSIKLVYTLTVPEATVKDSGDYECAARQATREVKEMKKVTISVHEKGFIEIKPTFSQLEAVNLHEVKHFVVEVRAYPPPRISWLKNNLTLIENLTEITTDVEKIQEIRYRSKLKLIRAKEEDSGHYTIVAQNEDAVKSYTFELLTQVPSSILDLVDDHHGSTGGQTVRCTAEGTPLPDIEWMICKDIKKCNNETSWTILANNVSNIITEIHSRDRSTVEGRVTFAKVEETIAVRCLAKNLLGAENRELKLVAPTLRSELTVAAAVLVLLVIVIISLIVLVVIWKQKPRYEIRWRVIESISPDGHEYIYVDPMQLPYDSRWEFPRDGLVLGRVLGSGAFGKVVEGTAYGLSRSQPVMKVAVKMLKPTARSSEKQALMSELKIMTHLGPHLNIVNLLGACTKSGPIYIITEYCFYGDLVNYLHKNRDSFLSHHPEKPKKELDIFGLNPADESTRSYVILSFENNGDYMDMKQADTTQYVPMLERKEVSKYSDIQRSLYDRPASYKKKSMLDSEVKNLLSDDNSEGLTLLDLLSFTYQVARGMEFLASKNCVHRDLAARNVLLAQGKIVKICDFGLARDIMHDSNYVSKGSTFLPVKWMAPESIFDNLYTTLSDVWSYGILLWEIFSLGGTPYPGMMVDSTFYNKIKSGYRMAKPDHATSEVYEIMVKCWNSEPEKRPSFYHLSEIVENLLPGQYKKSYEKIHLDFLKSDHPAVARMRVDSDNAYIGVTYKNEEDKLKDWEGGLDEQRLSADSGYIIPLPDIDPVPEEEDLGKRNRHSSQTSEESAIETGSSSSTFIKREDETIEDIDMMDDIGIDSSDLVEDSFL
Protocol: as §1, §2

[3] = biological target: T1, EphB1 (Homo sapiens, UniProt P54762); assay: TR-FRET kinase assay, EphB1; details: Kinase Concentration 0.5 nM; 50 nM ULight-labeled substrate, 200 micromolar ATP, 2 hours
T1 sequence (P54762 18-984): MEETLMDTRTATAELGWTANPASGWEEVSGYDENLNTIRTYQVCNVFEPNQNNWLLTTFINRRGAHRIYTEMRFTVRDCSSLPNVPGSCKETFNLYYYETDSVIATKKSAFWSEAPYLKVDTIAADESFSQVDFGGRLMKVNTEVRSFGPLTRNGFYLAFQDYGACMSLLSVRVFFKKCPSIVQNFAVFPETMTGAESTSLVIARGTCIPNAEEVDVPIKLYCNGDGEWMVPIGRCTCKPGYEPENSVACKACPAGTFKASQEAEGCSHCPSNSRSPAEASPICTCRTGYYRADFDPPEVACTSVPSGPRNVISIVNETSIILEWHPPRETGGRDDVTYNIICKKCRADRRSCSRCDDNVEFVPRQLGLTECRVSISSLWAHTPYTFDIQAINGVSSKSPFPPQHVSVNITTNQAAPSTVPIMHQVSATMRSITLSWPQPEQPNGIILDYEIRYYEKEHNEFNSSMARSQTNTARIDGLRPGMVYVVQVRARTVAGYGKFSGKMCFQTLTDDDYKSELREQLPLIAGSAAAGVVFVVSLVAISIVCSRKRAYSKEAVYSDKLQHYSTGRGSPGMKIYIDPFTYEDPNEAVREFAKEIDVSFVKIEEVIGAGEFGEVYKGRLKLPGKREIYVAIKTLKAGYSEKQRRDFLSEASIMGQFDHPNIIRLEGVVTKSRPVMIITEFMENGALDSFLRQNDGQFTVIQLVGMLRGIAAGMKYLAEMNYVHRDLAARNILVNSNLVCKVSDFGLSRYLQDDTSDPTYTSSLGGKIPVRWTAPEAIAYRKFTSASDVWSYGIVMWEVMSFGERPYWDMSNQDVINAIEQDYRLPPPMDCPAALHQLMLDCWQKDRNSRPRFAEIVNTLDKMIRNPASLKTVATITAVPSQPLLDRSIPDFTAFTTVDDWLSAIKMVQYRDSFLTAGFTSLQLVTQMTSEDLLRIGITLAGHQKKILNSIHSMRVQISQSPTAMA
Protocol: as §1, §2

[4] = biological target: BLK (Homo sapiens, UniProt P51451); assay: TR-FRET kinase assay, BLK; details: Kinase Concentration 0.5 nM; 50 nM ULight-labeled substrate, 200 micromolar ATP, 2 hours
Sequence of BLK (P51451 whole entry, species assumed): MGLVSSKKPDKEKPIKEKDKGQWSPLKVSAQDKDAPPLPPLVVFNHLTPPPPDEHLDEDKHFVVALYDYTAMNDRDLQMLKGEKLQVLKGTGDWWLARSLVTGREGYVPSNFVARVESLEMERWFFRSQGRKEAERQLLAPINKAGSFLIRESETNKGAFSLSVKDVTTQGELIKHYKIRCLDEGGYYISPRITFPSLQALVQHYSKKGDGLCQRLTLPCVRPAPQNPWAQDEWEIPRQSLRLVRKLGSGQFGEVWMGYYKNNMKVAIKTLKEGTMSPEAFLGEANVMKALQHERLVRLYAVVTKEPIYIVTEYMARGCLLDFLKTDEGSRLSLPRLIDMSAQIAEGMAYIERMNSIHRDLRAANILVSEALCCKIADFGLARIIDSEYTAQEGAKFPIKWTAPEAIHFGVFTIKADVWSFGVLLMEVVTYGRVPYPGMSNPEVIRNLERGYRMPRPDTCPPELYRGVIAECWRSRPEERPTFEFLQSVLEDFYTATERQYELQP
Protocol: as §1, §2

[5] = biological target: FMS (CSFR) (Homo sapiens, UniProt P07333); assay: TR-FRET kinase assay, FMS (CSFR); details: Kinase Concentration 0.25 nM; 50 nM ULight-labeled substrate, 200 micromolar ATP, 2 hours
Protocol: as §1, §2

[6] = biological target: KIT (Homo sapiens, UniProt P10721); assay: TR-FRET kinase assay, KIT; details: Kinase Concentration 2 nM; 50 nM ULight-labeled substrate, 200 micromolar ATP, 2 hours
Protocol: as §1, §2

[7] = biological target: T2, DDR2 (Homo sapiens, UniProt Q16832); assay: TR-FRET kinase assay, DDR2; details: Kinase Concentration 0.5 nM; 50 nM ULight-labeled substrate, 200 micromolar ATP, 2 hours
T2 sequence (Q16832 22-855): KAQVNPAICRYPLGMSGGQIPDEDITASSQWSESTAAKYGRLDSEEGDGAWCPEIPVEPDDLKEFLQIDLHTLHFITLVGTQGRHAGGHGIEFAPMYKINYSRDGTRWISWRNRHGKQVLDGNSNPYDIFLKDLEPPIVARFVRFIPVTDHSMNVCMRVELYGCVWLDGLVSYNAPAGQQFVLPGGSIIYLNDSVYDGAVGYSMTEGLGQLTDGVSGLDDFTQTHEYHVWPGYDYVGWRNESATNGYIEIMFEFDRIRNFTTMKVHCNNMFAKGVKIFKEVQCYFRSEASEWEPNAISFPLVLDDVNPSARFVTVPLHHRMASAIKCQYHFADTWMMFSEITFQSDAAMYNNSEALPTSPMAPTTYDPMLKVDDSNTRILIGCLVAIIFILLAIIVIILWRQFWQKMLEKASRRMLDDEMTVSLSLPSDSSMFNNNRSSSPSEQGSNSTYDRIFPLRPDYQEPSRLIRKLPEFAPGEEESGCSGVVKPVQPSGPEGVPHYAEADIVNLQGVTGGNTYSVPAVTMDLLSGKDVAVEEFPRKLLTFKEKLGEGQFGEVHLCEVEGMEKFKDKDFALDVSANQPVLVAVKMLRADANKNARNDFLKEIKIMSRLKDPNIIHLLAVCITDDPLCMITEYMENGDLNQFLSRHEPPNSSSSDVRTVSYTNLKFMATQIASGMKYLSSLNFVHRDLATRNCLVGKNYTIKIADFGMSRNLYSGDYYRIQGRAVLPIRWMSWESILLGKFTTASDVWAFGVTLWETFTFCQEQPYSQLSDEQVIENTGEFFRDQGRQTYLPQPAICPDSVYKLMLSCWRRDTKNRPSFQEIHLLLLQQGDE
Protocol: as §1, §2

Sequence of FES (P07332 whole entry, species assumed): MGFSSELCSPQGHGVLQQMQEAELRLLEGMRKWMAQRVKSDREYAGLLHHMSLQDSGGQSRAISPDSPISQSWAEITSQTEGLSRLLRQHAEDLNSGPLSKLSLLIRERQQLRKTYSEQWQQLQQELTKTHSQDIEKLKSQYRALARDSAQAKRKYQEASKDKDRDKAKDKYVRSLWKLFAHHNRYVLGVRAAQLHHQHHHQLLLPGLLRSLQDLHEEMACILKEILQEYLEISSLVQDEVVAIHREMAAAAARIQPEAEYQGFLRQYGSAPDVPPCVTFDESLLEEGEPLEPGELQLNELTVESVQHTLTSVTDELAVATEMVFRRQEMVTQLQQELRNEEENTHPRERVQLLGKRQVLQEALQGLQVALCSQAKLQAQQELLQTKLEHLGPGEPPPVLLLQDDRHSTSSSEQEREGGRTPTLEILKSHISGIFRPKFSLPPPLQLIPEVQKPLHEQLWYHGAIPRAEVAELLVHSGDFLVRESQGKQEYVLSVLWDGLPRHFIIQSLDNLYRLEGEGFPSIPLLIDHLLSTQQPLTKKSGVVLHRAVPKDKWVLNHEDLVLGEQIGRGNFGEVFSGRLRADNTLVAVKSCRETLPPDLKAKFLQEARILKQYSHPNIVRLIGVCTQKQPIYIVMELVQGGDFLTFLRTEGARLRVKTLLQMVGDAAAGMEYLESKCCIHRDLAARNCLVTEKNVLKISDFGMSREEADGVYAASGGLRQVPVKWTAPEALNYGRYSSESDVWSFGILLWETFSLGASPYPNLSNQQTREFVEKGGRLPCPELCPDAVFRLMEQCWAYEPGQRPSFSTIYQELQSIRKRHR

C AYE AYE AYE K EYA EYA EYA K AYA EYE R (CAYEAYEAYEKEYAEYAEYAKAYAEYER; tyrosine kinase substrate peptide) [BRB1]
Signal to Noise ratio with BRB1 Peptide [1]: 24.9
Signal to Noise ratio with BRB1 Peptide [2]: 8.0
Signal to Noise ratio with BRB1 Peptide [3]: 29.9
Signal to Noise ratio with BRB1 Peptide [4]: 31.0
Signal to Noise ratio with BRB1 Peptide [5]: 3.0
Signal to Noise ratio with BRB1 Peptide [6]: 1.5
Signal to Noise ratio with BRB1 Peptide [7]: 1.0

Reference: US8242083B2, “Kinase substrates” (PerkinElmer Health Sciences, Inc., priority 2008, dated 2012)
